Legend:
[1] = molecular target: RhoA^Val14CLVL^- fused to the VP16 activation domain (human, UniProt P06492 413-490; P61586 1-189); test: yeast two-hybrid with truncated PKN
[2] = molecular target: T1, PKNN2 (N-terminal region of PKN, amino acid sequence 1-474), 35S-labeled, in vitro translated (human, UniProt Q16512 1-474, [35S]methionine label); test: GST pull-down of 35S-labeled in vitro translated PKNN2
T1 construct: also called in vitro translated PKN-N; PKN prepared by in vitro translation
T1 sequence (Q16512 1-474): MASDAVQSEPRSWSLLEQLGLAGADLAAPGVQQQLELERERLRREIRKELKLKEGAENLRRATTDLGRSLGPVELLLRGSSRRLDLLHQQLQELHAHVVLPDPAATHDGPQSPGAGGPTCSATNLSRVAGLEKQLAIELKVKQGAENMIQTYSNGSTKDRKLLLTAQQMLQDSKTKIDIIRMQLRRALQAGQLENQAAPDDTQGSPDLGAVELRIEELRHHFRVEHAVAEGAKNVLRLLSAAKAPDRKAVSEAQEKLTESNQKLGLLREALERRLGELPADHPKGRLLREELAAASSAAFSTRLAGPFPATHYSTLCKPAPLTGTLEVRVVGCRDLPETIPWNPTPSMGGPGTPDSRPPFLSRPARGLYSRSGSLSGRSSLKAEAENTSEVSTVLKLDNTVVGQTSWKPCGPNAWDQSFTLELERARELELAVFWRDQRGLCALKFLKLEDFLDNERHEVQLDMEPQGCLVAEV

[3] = molecular target: T2, LexA DNA binding domain fused to PKNN1 (amino acid sequence 1-540 of PKN), pBTM/PKNN1 (human, UniProt P0A7C2 1-202 (Escherichia coli entry)); test: yeast two-hybrid, lacZ expression in L40 cells
T2 construct: also called LexAbd-PKN; LexA-PKNN1
T2 sequence (P0A7C2 other isoform, or with tags, fused parts or gaps limits assumed): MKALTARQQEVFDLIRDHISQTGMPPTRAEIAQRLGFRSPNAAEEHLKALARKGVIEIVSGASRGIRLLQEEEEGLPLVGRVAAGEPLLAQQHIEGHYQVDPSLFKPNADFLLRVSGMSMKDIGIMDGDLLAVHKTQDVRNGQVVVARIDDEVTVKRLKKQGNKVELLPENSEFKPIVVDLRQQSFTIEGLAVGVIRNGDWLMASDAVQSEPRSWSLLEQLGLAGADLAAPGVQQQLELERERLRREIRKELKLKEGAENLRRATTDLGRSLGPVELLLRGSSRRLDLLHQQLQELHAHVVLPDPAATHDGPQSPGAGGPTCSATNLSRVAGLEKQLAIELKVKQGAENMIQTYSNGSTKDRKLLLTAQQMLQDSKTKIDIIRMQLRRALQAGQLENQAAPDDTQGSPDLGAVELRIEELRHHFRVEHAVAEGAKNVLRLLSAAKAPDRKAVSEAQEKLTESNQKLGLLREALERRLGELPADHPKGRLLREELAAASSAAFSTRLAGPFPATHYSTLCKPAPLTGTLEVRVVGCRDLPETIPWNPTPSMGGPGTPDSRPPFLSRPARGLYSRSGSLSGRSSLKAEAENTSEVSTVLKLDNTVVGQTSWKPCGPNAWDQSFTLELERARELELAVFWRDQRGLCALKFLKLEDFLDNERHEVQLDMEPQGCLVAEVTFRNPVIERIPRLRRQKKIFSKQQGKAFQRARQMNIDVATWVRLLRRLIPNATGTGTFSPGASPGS

[4] = molecular target: T3, Gal4 DNA-binding domain fused to PKNN1 (amino acid sequence 1-540 of PKN), pGBT9 (human, UniProt P04386 1-147 (Saccharomyces cerevisiae entry)); test: yeast two-hybrid library screen, HIS3 and β-galactosidase
T3 construct: range 1-147; also called Gal4bd-PKN

[5] = molecular target: catalytic subunit of bovine heart PKA (bovine, UniProt P00517 2-351); test: cell-based or functional assay
[6] = molecular target: T4, PKN purified from rat testis cytosol (rat, UniProt Q63433 2-946, limits assumed); test: cell-based or functional assay
[7] = molecular target: T4, PKN purified from rat testis cytosol; test: apparent Ki from kinase kinetics with δPKC peptide substrate; double-reciprocal plots and secondary plot of Km/Vmax

B1: truncated PKN, amino acid sequence 3-135, two-hybrid fusion (other)
chain: SDAVQSEPRSWSLLEQLGLAGADLAAPGVQQQLELERERLRREIRKELKLKEGAENLRRATTDLGRSLGPVELLLRGSSRRLDLLHQQLQELHAHVVLPDPAATHDGPQSPGAGGPTCSATNLSRVAGLEKQL
notes: also called PKN 3-135
**Q.** Does B1 bind [1]?
**A.** binds

B2: GST-HuActSkl (837-894) (other, human, UniProt P35609 837-894, looked up)
chain: ILASDKPYILAEELRRELPPDQAQYCIKRMPAYSGPGSVPGALDYAAFSSALYGESDL
notes: not shown: glutathione S-transferase (GST) tag
**Q.** Does B2 bind [2]?
**A.** no binding

B3: VP16 transcription activation domain fused to the head-rod domain of human NFL (amino acid sequence 1-349), pVP/NFL#21 (other)
chain: MSSFSYEPYYSTSYKRRYVETPRVHISSVRSGYSTARSAYSSYSAPVSSSLSVRRSYSSSSGSLMPSLENLDLSQVAAISNDLKSIRTQEKAQLQDLNDRFASFIERVHELEQQNKVLEAELLVLRQKHSEPSRFRALYEQEIRDLRLAAEDATNEKQALQGEREGLEETLRNLQARYEEEVLSREDAEGRLMEARKGADEAALARAELEKRIDSLMDEISFLKKVHEEEIAELQAQIQYAQISVEMDVTKPDLSAALKDIRAQYEKLAAKNMQNAEEWFKSRFTVLTESAAKNTDAVRAAKDEVSESRRLLKAKTLEIEACRGMNEALEKQLQELEDKQNADISAMQD
notes: range 1-349
**Q.** Does B3 bind [3]?
**A.** binds

B4: Gal4 activation domain fusion of library clone #21 (head-rod domain of human NFL, amino acid sequence 1-349), pGAD10-NFL#21 (other, UniProt P07196 1-349, looked up, not shown: large carriers)
chain: B3 chain
notes: range 1-349; also called clone#21 protein; plasmid #21
**Q.** Does B4 bind [4]?
**A.** binds

**Q.** Which “IC50 (inhibition of Kemptide phosphorylation by PKA)” value [5] does the source give for RERLRREIRKELKLK [PKN (39-53) peptide] here?
**A.** ≥ 1000 µM

**Q.** And the “IC50 (inhibition of δPKC peptide phosphorylation by PKN)” value [6]?
**A.** ~80 µM

**Q.** And the Ki [7]?
**A.** 41 µM

B5: GST-HuActSkl (604-719) (other, human, UniProt P35609 604-719, looked up)
chain: MDELRTKWDKVKQLVPIRDQSLQEELARQHANERLRRQFAAQANAIGPWIQNKMEEIARSSIQITGALEDQMNQLKQYEHNIINYKNNIDKLEGDHQLIQEALVFDNKHTNYTMEH
notes: as for B2
**Q.** Does B5 bind [2]?
**A.** no binding

B6: VP16 transcription activation domain fused to the head-rod domain of NFM, pVP/NFMhr (other)
chain: MSYTLDSLGNPSAYRRVTETRSSFSRVSGSPSSGFRSQSWSRGSPSTVSSSYKRSMLAPRLAYSSAMLSSAESSLDFSQSSSLLNGGSGPGGDYKLSRSNEKEQLQGLNDRFAGYIEKVHYLEQQNKEIEAEIQALRQKQASHAQLGDAYDQEIRELRATLEMVNHEKAQVQLDSDHLEEDIHRLKERFEEEARLRDDTEAAIRALRKDIEEASLVKVELDKKVQSLQDEVAFLRSNHEEEVADLLAQIQASHITVERKDYLKTDISTALKEIRSQLESHSDQNMHQAEEWFKCRYAKLTEAAEQNKEAIRSAKEEIAEYRRQLQSKSIELESVRGTKESLERQLSDIEERHNHDLSSYQDTIQQLENELRGTKWEMARHLREYQDLLNVKMALDIEIAAYRKLLEGEETR
notes: range 1-411
**Q.** Does B6 bind [3]?
**A.** binds

— patent US6660837 (KIRIN BEER, dated 2003)
